Assays:
[1] = target: T1, Angiopoietin-2 (Ang2) (Homo sapiens) (UniProt O15123); test: flow; conditions: 2'-F
T1 sequence: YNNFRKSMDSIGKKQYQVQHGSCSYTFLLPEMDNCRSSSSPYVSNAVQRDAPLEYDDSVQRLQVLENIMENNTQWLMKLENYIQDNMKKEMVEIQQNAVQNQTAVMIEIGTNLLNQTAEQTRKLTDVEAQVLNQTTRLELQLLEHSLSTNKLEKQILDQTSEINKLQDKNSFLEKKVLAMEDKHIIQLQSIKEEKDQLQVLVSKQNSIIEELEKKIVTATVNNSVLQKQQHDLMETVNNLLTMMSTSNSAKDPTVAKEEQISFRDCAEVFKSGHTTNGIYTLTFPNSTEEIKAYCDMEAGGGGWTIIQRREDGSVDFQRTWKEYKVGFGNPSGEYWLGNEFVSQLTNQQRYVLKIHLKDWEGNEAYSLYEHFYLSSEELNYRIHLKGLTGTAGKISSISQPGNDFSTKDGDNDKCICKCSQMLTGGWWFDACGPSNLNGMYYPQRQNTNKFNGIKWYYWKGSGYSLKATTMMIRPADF

[2] = test system: T2, VEGF-165 (VEGF-A) (Homo sapiens); test: flow; conditions: 2'-F
T2 sequence: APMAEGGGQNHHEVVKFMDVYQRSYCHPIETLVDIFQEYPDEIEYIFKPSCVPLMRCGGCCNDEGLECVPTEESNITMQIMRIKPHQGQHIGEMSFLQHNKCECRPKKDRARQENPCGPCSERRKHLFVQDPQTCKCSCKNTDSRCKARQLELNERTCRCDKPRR

[3] = hexaethylene glycol (H) linker replacing UUUUA after UGCAUGCA
[4] = internal hexaethylene glycol (H) linker in Ang2 part
[5] = OOOO linker replacing UUUUA after UGCAUGCA
[6] = OO linker replacing UUUUA after UGCAUGCA

For “UGCAUGCACCAGUGAGUCGGAUCUCCGCAUAGAUAAGCCAACAAACGUACAUUCUCUGUUAGUAUUUUCUGCG [AMSB107.22]”, the Kd [1, 3] was 0.098 nM and the Kd [2, 3] was 0.055 nM.

“UGCAUGCAUUUUACCAGUGAGUCGGAUCUCCGCAUAGAUAAGCCAACAAAUUCUCUGUUAGUAUUUUCUGCG [AMSB107.24]” was tested, and the Kd [1, 4] was 1.78 nM and the Kd [2, 4] was 0.209 nM.

“UGCAUGCAUUUUACCAGUGAGUCGGAUCUCCGCAUAGAUAAGCCAACAAACGUUCUCUGUUAGUAUUUUCUGCG [AMSB107.25]” showed a Kd [1, 4] of 1.41 nM and a Kd [2, 4] of 0.224 nM.

“UGCAUGCAUUUUACCAGUGAGUCGGAUCUCCGCAUAGAUAAGCCAACAAACGUACAUUCUCUGUUAGUAUUUUCUGCG [AMSB107.23]” was tested, and the Kd ([1]; 5' hexaethylene glycol (H)) was 0.084 nM and the Kd ([2]; 5' hexaethylene glycol (H)) was 0.049 nM.

In the case of “UGCAUGCACCAGUGAGUCGGAUCUCCGCAUAGAUAAGCCAACAAACGUACAUUCUCUGUUAGUAUUUUCUGCG [AMSB107.27]”, the Kd [1, 5] is reported as 0.079 nM and the Kd [2, 5] is reported as 0.059 nM.

“UGCAUGCACCAGUGAGUCGGAUCUCCGCAUAGAUAAGCCAACAAACGUACAUUCUCUGUUAGUAUUUUCUGCG [AMSB107.26]” gave a Kd [1, 6] of 0.076 nM and a Kd [2, 6] of 0.056 nM.

From patent US20230095004
